For this assay, the target named is HIV-1 capsid protein (CA), wild type (HIV-1 (NL4-3 / R9 clones)).

For the substance owl-monkey TRIMCyp (natural protein), the TRIMCyp restriction assay: infectivity of control pseudoviruses with pure CA^WT cores in TZM-bl cells expressing TRIMCyp, 48 h (fold reduction in infection) was 10.
